Stoichiometry N data for one substance are collected here from article PMC4864278.

For assay [1], the target named is TRIM32 extended RING domain (UniProt Q13049). Put plainly: SAXS; batch SAXS, Diamond Light Source beamline B21; at least three dilutions of each construct; concentrations as in Table 2.
The target is the same in assay [2]. Put plainly: SEC-MALS; SEC-MALLS, Superdex 75 or Superdex 200 10/300 GL, 25°C, 20 mM HEPES pH 7.5, 100 mM NaCl (TRIM32) or 150 mM NaCl (TRIM25), 0.5 mM TCEP, 3 mM NaN3; samples run over a range of concentrations. A general note: Size exclusion chromatography separates by hydrodynamic size, large species first.

TRIM32 extended RING domain (from UniProt Q13049 1-93) (domain or fragment), sequence (Q13049 1-93): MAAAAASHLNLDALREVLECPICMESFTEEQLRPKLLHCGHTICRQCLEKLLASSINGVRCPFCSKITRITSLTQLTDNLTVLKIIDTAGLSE

Turning to “TRIM32 extended RING domain (from UniProt Q13049 1-93) (domain or fragment)”, the stoichiometry N in assay [1] and in assay [2] was 2 throughout.
